Data reported in the supplement of paper PMC7877785.
± gives the uncertainty stated by the source.

Assay: self-splicing fitness, log relative to wild type (ln ratio); higher = more splicing; Tetrahymena group I intron in knt gene, E. coli kanamycin selection, DiMSum; sequences stand for … in CUCUCU…GGAGGGAAAAGUUAUCAGGCAUGCACCUGGUAGCUAGUCUUUAAACCAAUAGAUUGCAUCGGUUUAAAAGGCAAGACCGUCAAAUUGCGGGAAAGGGGUCAACAGCCGUUCAGUACCAAGUCUCAGGGGAAACUUUGAGAUGGCCUUGCAAAGGGUAUGGUAAUAAGCUGACGGACAUGGUCCUAACCACGCAGCCAAGUCCUAAGUCAACAGAUCUUCUGUUGAUAUGGAUGCAGUUCACAGACUAAAUGUCGGUCGGGGAAGAUGUAUUCUUCUCAUAAGAUAUAGUCGGACCUCUCCUUAAUGGGAGCUAGCGGAUGAAGUGAUGCAACACUGGAGCCGCUGGGAACUAAUUUGUAUGCGAAAGUAUAUUGAUUAGUUUUGGAGUACUCGUGGUCG
How it was run: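 The eight P1ex-region nucleotides of an intron in the knt kanamycin-resistance gene on pET-22b(+) were all randomised and the library put into E. coli BL21(DE3). Six replicate transformations were grown overnight at 37°C or 30°C on LB agar with or without 25 μg/mL kanamycin, together with 100 μg/mL carbenicillin, 50 μM IPTG and 0.2% rhamnose. Colonies were pooled and amplicon-sequenced on an Illumina HiSeq 2500. Fitness from DiMSum is the error-weighted combination of wild-type-normalised replicate fold changes, kanamycin over none.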

Sequence | self-splicing fitness (ln) (30 °C) | self-splicing fitness (ln) (37 °C)
AAUCAGCAAUAUUACGGACC | 0.313 ± 0.13 | -0.451 ± 0.13
GAUCAGCAAUAUUACGUAUC | -3.17 ± 0.21 | -2.62 ± 0.21
GAUUAGCAAUAUUACGGUCA | -1.38 ± 0.15 | -1.2 ± 0.12
GACCAGCAAUAUUACGUAAU | -0.385 ± 0.058 | -0.075 ± 0.07
AUCGAGCAAUAUUACGCUCG | -2.72 ± 0.35 | 
UAGUAGCAAUAUUACGCCUU | -2.11 ± 0.12 | -0.556 ± 0.11
UUAGAGCAAUAUUACGAAAU | -3.77 ± 0.34 | -3.04 ± 0.47
AGCAAGCAAUAUUACGUUCG | -2.66 ± 0.084 | -1.44 ± 0.09
GAUGAGCAAUAUUACGCGUU | -4.44 ± 0.28 | -3.27 ± 0.21
CACCAGCAAUAUUACGAAUG | -0.784 ± 0.039 | 0.236 ± 0.058
AAUAAGCAAUAUUACGGCCG | -0.879 ± 0.12 | 0.196 ± 0.2
UGCUAGCAAUAUUACGUUGC | -3.53 ± 0.34 | -1.77 ± 0.23
CGAUAGCAAUAUUACGCGUC |  | -1.76 ± 0.47
UUAUAGCAAUAUUACGCGAU | -2.8 ± 0.37 | -2.23 ± 0.46
GAACAGCAAUAUUACGUCCC | -1.98 ± 0.16 | -1.25 ± 0.19
GUUUAGCAAUAUUACGGCAA | -0.678 ± 0.14 | -1.03 ± 0.13
CCACAGCAAUAUUACGUUUU | -3.73 ± 0.16 | -3.7 ± 0.22
GAUGAGCAAUAUUACGUCCG | -3.75 ± 0.43 | -2.09 ± 0.32
GCCCAGCAAUAUUACGUGAC | -1.38 ± 0.057 | -0.584 ± 0.069
CCCCAGCAAUAUUACGAGGA | -2.66 ± 0.13 | -1.53 ± 0.11
CUAGAGCAAUAUUACGUUAA | -3.73 ± 0.24 | -1.89 ± 0.28
ACUAAGCAAUAUUACGCGGC | -3.74 ± 0.23 | -1.85 ± 0.18
AAACAGCAAUAUUACGACCA | -0.58 ± 0.061 | -0.0342 ± 0.082
CCCGAGCAAUAUUACGCAGG | -1.97 ± 0.2 | -1.36 ± 0.22
GGUUAGCAAUAUUACGACAC | 0.342 ± 0.2 | -0.137 ± 0.24

Sequence | self-splicing fitness (ln) (30 °C) | self-splicing fitness (ln) (37 °C)
CGGUAGCAAUAUUACGACGA | -1.46 ± 0.19 | 0.22 ± 0.17
CCGAAGCAAUAUUACGUACA | -3.19 ± 0.43 | -1.75 ± 0.34
CACCAGCAAUAUUACGGUUU | -0.79 ± 0.045 | -0.0932 ± 0.065
CAAGAGCAAUAUUACGGUUG | -2.72 ± 0.12 | -2.25 ± 0.18
AGAAAGCAAUAUUACGACUG | -1.04 ± 0.093 | -0.249 ± 0.12
GCUAAGCAAUAUUACGCGGG | -3.54 ± 0.2 | -0.902 ± 0.13
GGGCAGCAAUAUUACGCAUC | -2.25 ± 0.41 | -0.733 ± 0.2
CCUCAGCAAUAUUACGCACU | -3.26 ± 0.18 | -1.63 ± 0.2
CCAGAGCAAUAUUACGAUCG | -0.986 ± 0.11 | -0.589 ± 0.14
UGGGAGCAAUAUUACGCUGU |  | -1.2 ± 0.41
AGGAAGCAAUAUUACGUUUA | -2.27 ± 0.12 | -1.8 ± 0.14
AGCAAGCAAUAUUACGCCUU | -1.24 ± 0.1 | 0.351 ± 0.11
CACAAGCAAUAUUACGUUAA | -4.3 ± 0.27 | -2.28 ± 0.13
UUUGAGCAAUAUUACGGAGG | -3.18 ± 0.32 | -2.33 ± 0.46
UCCAAGCAAUAUUACGAUAU | -3.24 ± 0.19 | -2.57 ± 0.16
ACUUAGCAAUAUUACGGCCG | -0.516 ± 0.071 | -0.251 ± 0.11
UGGAAGCAAUAUUACGGCGG | -0.545 ± 0.08 | -0.13 ± 0.1
CUCGAGCAAUAUUACGCUUC | -3.71 ± 0.3 | -2.24 ± 0.29
UGAAAGCAAUAUUACGCUCU | -2.48 ± 0.17 | -1.37 ± 0.18
CCCGAGCAAUAUUACGGGCA | -3.2 ± 0.23 | -2.66 ± 0.23
GCGGAGCAAUAUUACGAGGG | -4.49 ± 0.36 | -2.93 ± 0.34
CGAAAGCAAUAUUACGGCAC | -2.6 ± 0.15 | 0.387 ± 0.21
GUAUAGCAAUAUUACGCGUU | -1.21 ± 0.11 | -1.33 ± 0.17
CCUGAGCAAUAUUACGCAGC |  | -1.38 ± 0.3
CCUUAGCAAUAUUACGUGAG | -1.35 ± 0.068 | 0.0439 ± 0.088

Sequence | self-splicing fitness (ln) (30 °C) | self-splicing fitness (ln) (37 °C)
AUCCAGCAAUAUUACGUGUC | -3.34 ± 0.16 | -2.24 ± 0.14
UUGCAGCAAUAUUACGACCU | -0.892 ± 0.1 | -0.129 ± 0.15
GAAUAGCAAUAUUACGGACA | -0.557 ± 0.12 | -0.0249 ± 0.16
ACAGAGCAAUAUUACGGUCC | -2.18 ± 0.14 | -2.05 ± 0.39
GAUCAGCAAUAUUACGCGGA | -1.45 ± 0.18 | -0.828 ± 0.14
CUGGAGCAAUAUUACGGCGU | -2.77 ± 0.18 | 
GCCAAGCAAUAUUACGCGAA | -1.2 ± 0.1 | -0.257 ± 0.11
GAUCAGCAAUAUUACGCAAG | -1.99 ± 0.15 | -1.34 ± 0.14
GUGCAGCAAUAUUACGACCA | -0.711 ± 0.1 | -0.667 ± 0.13
UCCUAGCAAUAUUACGCGCU | -2.24 ± 0.14 | -2.73 ± 0.23
CGCUAGCAAUAUUACGCACG | -2.53 ± 0.17 | -2.06 ± 0.24
CGCCAGCAAUAUUACGCUCA | -0.656 ± 0.073 | 0.163 ± 0.083
AGUAAGCAAUAUUACGGGGG | -3.08 ± 0.22 | -2.87 ± 0.29
AGCCAGCAAUAUUACGCUGC | -3.09 ± 0.34 | -2.59 ± 0.26
CGUCAGCAAUAUUACGUUUG | -1.14 ± 0.062 | -0.102 ± 0.079
CUUCAGCAAUAUUACGUAAU | -2.76 ± 0.13 | -0.639 ± 0.1
AGGCAGCAAUAUUACGCAUU | -2.24 ± 0.13 | -0.577 ± 0.1
GUGAAGCAAUAUUACGCGCG | -0.674 ± 0.083 | 0.0224 ± 0.12
UAGUAGCAAUAUUACGUGGU | -3.62 ± 0.18 | -3.33 ± 0.19
CUCUAGCAAUAUUACGUUGG | -3.9 ± 0.22 | -2.92 ± 0.23
UCUGAGCAAUAUUACGUGGG | -2.78 ± 0.14 | -0.918 ± 0.11
GUACAGCAAUAUUACGAGAU | -3.53 ± 0.16 | -2.03 ± 0.11
GAUGAGCAAUAUUACGGAAG | -2.31 ± 0.33 | 
CCAGAGCAAUAUUACGUGCU | -3.37 ± 0.24 | -3.56 ± 0.42
ACGUAGCAAUAUUACGUCGG | -3.32 ± 0.33 | -2.07 ± 0.2

Sequence | self-splicing fitness (ln) (30 °C) | self-splicing fitness (ln) (37 °C)
AUGCAGCAAUAUUACGUGCA | -2.07 ± 0.1 | -0.922 ± 0.1
UUGUAGCAAUAUUACGACCU | -1.39 ± 0.15 | -0.134 ± 0.16
AGAAAGCAAUAUUACGCUUU | -3.57 ± 0.23 | -3.24 ± 0.4
UAUGAGCAAUAUUACGGGGG | -3.16 ± 0.26 | -2.31 ± 0.29
UCCGAGCAAUAUUACGACGA | -0.666 ± 0.086 | 0.401 ± 0.11
GCCUAGCAAUAUUACGAAUC | -1.36 ± 0.066 | 0.0359 ± 0.086
GCCCAGCAAUAUUACGAGAU | -1.54 ± 0.12 | -0.957 ± 0.091
AGCCAGCAAUAUUACGACGU | -0.356 ± 0.068 | -0.487 ± 0.085
GGUAAGCAAUAUUACGCGGG | -3.28 ± 0.17 | -2.02 ± 0.2
CCUUAGCAAUAUUACGUCUG | -2.99 ± 0.1 | -1.48 ± 0.096
CCGUAGCAAUAUUACGUGUG | -2.36 ± 0.095 | -1.06 ± 0.082
UAAGAGCAAUAUUACGUUAG | -3.43 ± 0.24 | -3.1 ± 0.27
UGAUAGCAAUAUUACGUUAA | -2.02 ± 0.21 | -2.15 ± 0.26
CCAUAGCAAUAUUACGUCGG | -3.15 ± 0.19 | -2.02 ± 0.29
GAUAAGCAAUAUUACGUGGG | -3.77 ± 0.23 | -2.27 ± 0.25
GGCUAGCAAUAUUACGCUAC | -3.04 ± 0.48 | -2.3 ± 0.34
UGAUAGCAAUAUUACGCCCG | 0.00499 ± 0.21 | -0.455 ± 0.2
AGACAGCAAUAUUACGCACU | -0.646 ± 0.12 | -0.203 ± 0.13
AAUCAGCAAUAUUACGUUUU | -0.639 ± 0.058 | -0.399 ± 0.085
CUAUAGCAAUAUUACGUCAA | -3.16 ± 0.2 | -2.7 ± 0.23
GAACAGCAAUAUUACGAGGA | -2.14 ± 0.11 | -1.53 ± 0.14
UUAUAGCAAUAUUACGUACG | -1.03 ± 0.12 | -0.0555 ± 0.17
